Assay: yeast display, Sf9 membrane polyspecificity reagent, FACS + sequencing; frameworks hold sequencing errors
How it was run: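 Nanobodies came from a synthetic yeast display library in Saccharomyces cerevisiae BJ5465, induced with galactose for 36–48 hours and stained for 1 hour at 4 °C with 10% biotinylated, detergent-solubilized Sf9 membrane reagent. Cells were enriched on streptavidin microbeads and then FACS-sorted, with low and high (top ~1%) gates set on anti-HA fluorescence for expression and streptavidin fluorescence for reagent binding. Each polyreactivity label reflects the gate a clone came from. Genes were amplified by colony PCR, sequenced by MiSeq 2 × 250 and filtered by CDR length.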

| Sequence | polyreactivity (PSR sort gate) |
| --- | --- |
| QVQLVESGGGLVQAGGSLRLSCASSGRIFLTNAMGWYRQAPGKERELVAAITSGGSTYYADSVKGRFTISRDNAKNTVFLQMNSLKPEDTAVYYCIADTDRYWPYEYDYWGQGTQVTVSS | low polyreactivity |
| QVQLVESGGGLVQAGGSLRLSCAASGFTFYGYAMVWYRQAPGKERELLAAITFRGDRTYYADSVKGRFTISRDIAKNTVYLQMNSLKPEDTAVYYCAAERPSGWYSYLSLYIVRRGYWGQGTQVTVSS | low polyreactivity |
| QVQLVESGGGLVQAGGILRLSCAASGSTLTYYTMGWYRQAPGKERELVAHISWSSGRTYYADSVKGRFTISRDNAKNTVYLQMNSLKPEDTAVYYCNADRTYYRGLDYWGQGTQVTVSS | high polyreactivity |
| QVQLVESGGGLVQAGGSLRLSSAASGTTFAPNAMGWYRPAPGKERELVAAISSGGDSTNYADSVKGRFTISRDNAKNTVYLQLNSLKPEDTAVYYCAAHYVEREYDYWGQGTQVTVSS | low polyreactivity |
| QVQLVESGGGLVQAGGSLRLSCAASGRIFSPYAMGWYRQAPGKERELVAAISFSAASTYYADSVKGRFTISRDNAKNTVYLQMNSLKPEDTAVYYCAADYWGQGTQVTVSS | high polyreactivity |
| QVQLVQSGGGLVQAGGSLRLSCAASGYTIYLKAMGWNRQAPGKERELVAAITGSGDDTYYADSVKGRFTISRDNAKNTVYLQMKIMIPEDTAVYYCAARPYYTSSYKDYEYWGQGTQVTVSS | high polyreactivity |
| QVQLVESVGGLVQAGGSLRLSCDASGSTFTSYTMGWYRPAPGKERELVAAISRSDGDRTYYADSVKGRFTISRDNAKNTVYLQMNSLKPEDTAVYYCAAEVTPRIVRYYYWGQGTQVTVSS | high polyreactivity |
| QVQLVESGGGLVQAGGSLRLSCAASGRSFSGYAMGWYRQAPGKERDLVAAITSSGGRTYYADSVKGRFTISRDNAKNTVYVQMNSLKPEETAVYYSAAMRPGYRPQGLDYWGQGTQVTVSS | low polyreactivity |
| QVQLVESGGGLVQAGGSHRLSCDSSGTFKWYAMGWYRQAPGKERELVAVISTSGGTTNYADSVKGRFTISLDNAKNTVYLQMNSLKPEDTAVYYCNAAKLFRYDYWGQGTQVTVSS | high polyreactivity |
| QVQLVESGGGLVQAGGSLRLSCAASGRTIDYNGMGWYRQAPGKEREMVAVISSSGGSTFYADSVKGRFTISRDNAKNTVYLQMNSLKPEDTAVYYSAADFIVAYTLHGSYDYWGQGTQVTVSS | low polyreactivity |
| QVQLVESGGGLVQAGGSLRLSCAASGSIFTYNTMGWYRQAPGKERELVAAISGRGGRTYYADSVKGRFTISRDNAKKTVYLQMNSLKPEDTAVYYCNARKYSQKIYGNYNYWGQGTQVTVSS | high polyreactivity |
| QVQLVESGGGLVQAGGSLRLSCAASGFTFGENAMGWYRQAPGKERELVATISDSGDSTYYADSVKGRFTISRDNAKNTVYLQMNSLKPEDTAVYYCAAPLPHRGYDEGYWGQGTQVTVSS | low polyreactivity |
| QVQLVESGGGLVQAGGSLRLSCAASGSIFHYNSMGWDRQAPGKEWGLVASMSSGGRTYYADSVKGRFTISRDNPKNTVYLQMNSLKPDDTAVYYCAAEYYQTTYVWWTYDYYGGQGTQVTVSS | low polyreactivity |
| QVQLVESGGGLVQAGGSLRFSCAAYGSISRYYAMGWYRLAPGKERELVAAISSNGGSTYYADSVKGRFTISRDNAKNTVYLQMNSLKPEDTAVDDCAAESDYFRYDYWGQGTQVTVSS | high polyreactivity |
| QVQLVESGGGLVQAGGSLRLSCAASGSIFKGYAMGWYRQAPGKEREFVAAITSSDSNTNYADSVKGRFTFSRDNAKNTVYLQLHTLKPEDTAVYYCNARIYNRLYVPHYGFNYWGQGTQVTVSS | low polyreactivity |
| QVQIVDSGGGLVQAGGSLRISCAASGYISRVYAMGWYRQAPRKERELVAAITRSTTYYADSVKGRFTISRDNAKNTVYLQMNSLKPEDSAVYYCNAVWASPGQVRMYYWGQGTQVNVSS | high polyreactivity |
| QVQHVESGGGLVQAGGSLRLSCAASGSTFWFNAMGWYRQATGKVRELVAAITSGSTYYADSVKGRFTISRDNAKNTVYLPMNSLQPEYTAVYYCASTEFTFYYSYDYWAQGTQVTVSS | low polyreactivity |

From the nanobody polyreactivity screen of Harvey et al. (2022)
